Residue numbers refer to the chain shown, from its start.
Key:
[1] = biological target: T1, Recombinant cynomolgus monkey sgM-CSF (cynomolgus (Macaca fascicularis), UniProt P09603 33-255 (human entry), limits assumed); experiment: cell-based or functional assay
T1 chain: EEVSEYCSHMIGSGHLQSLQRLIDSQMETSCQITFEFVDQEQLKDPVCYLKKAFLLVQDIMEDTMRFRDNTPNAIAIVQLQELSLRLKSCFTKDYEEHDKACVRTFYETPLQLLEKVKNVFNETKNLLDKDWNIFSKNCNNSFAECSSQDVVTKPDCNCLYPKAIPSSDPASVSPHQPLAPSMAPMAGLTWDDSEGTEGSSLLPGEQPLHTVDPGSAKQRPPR

[2] = biological target: T2, Recombinant human sgM-CSF (human, UniProt P09603 33-255); experiment: cell-based or functional assay
T2 sequence: T1 chain with M186V, D192E

RNase A (cow) = biological target: T3, RNase A (cow) (cow, UniProt P61823 27-150); experiment: MSD specificity profiling, coated protein
T3 sequence (looked up): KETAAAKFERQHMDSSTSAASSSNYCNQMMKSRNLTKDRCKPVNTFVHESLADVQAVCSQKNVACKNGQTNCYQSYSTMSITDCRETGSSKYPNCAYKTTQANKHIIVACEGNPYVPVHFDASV
Method: (§1) For this specificity profiling test the different proteins and controls were coated on two 384-well MSD plates with a concentration of 1 μg/ml at 4° C. over night. Plates were blocked with BSA and washed three times with PBS with 0.05% (v/v) Tween 20. Antibody samples were diluted to 100 nM and 10 nM in assay buffer (PBS with 0.5% (w/v) BSA, 0.05% (v/v) Tween 20). […] Samples and controls were incubated for three hours at room temperature. The plates were washed three times and 30 μl detection antibody (ECL-labeled anti-human Fab) were added per well and incubated for 1 h. After washing, MSD Read Buffer T with surfactant was added and electrochemiluminescence signals were detected using a Sector Imager 6000 (Meso Scale Discovery, Gaithersburg, Md., USA).

Myoglobin (horse) = Myoglobin (horse) (horse, UniProt P68082 2-154); experiment: MSD specificity profiling, coated protein
Myoglobin (horse), sequence (P68082 2-154 limits assumed): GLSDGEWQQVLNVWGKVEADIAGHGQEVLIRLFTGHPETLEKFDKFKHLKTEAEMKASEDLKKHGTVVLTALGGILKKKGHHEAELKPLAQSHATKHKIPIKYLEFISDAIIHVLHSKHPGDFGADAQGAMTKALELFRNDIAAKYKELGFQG
Method: as §1

Ovalbumin (chicken) = biological target: T4, Ovalbumin (chicken) (chicken, UniProt P01012 2-386); experiment: MSD specificity profiling, coated protein
T4 sequence (looked up): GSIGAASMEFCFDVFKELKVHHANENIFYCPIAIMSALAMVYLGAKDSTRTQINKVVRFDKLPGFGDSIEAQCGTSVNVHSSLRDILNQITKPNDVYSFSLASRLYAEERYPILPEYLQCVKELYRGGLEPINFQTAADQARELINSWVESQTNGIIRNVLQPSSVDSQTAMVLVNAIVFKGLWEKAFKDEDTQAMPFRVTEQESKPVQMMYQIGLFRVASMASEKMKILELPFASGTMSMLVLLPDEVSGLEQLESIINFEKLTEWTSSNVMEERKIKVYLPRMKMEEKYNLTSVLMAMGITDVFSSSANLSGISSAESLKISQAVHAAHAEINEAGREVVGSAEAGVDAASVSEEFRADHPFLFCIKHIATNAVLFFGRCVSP
Method: as §1

Serum albumin (human) = Serum albumin (human) (human, UniProt P02768 25-609); experiment: MSD specificity profiling, coated protein
Method: as §1

Pepsinogen (pork) = Pepsinogen (pork) (pork, UniProt P00791 16-385); experiment: MSD specificity profiling, coated protein
Pepsinogen (pork), sequence (P00791 16-385): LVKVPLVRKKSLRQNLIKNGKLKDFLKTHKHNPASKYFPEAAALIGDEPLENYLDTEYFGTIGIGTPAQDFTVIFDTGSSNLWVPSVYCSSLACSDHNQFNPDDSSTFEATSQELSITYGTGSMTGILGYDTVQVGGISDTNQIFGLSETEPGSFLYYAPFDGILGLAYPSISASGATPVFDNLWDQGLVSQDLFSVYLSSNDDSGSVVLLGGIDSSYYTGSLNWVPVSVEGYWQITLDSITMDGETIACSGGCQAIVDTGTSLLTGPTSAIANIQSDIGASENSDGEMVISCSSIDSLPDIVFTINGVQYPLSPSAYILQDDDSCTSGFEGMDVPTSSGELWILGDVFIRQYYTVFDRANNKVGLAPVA
Method: as §1

Antitrypsin (human) = Antitrypsin (human) (human, UniProt P01009 25-418); experiment: MSD specificity profiling, coated protein
Antitrypsin (human), sequence (P01009 25-418 limits assumed): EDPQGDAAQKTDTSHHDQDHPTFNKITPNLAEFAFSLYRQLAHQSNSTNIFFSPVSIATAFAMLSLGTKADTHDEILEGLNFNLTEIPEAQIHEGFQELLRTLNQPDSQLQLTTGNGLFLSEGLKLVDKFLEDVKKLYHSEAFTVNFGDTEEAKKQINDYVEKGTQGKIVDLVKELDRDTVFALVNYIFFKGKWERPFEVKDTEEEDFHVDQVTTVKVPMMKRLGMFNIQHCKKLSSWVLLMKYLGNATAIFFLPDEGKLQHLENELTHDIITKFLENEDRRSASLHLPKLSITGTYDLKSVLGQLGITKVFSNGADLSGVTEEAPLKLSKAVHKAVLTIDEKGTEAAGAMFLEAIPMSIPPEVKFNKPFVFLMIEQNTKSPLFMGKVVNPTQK
Method: as §1

Trypsinogen (cow) = biological target: T5, Trypsinogen (cow) (cow, UniProt P00760 18-246); experiment: MSD specificity profiling, coated protein
T5 sequence (looked up): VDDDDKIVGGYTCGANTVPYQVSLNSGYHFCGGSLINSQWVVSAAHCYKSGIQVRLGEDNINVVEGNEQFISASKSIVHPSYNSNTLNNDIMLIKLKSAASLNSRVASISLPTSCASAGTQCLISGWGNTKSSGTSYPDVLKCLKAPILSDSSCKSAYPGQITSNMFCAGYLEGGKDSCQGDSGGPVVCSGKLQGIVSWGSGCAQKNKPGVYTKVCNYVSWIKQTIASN
Method: as §1

B1: Camille (format not stated) (antibody, V domains shown)
VH: QVQLQQSGPGLVKPSQTLSLTCAISGESVSTSSAAWNWIRQSPSRGLEWLGRTYYRSKWKHEYAVSVKSRITINPDTSKNQFSLQLNSVTPEDTAVYYCARDRYYYSAFDYWGQGTLVTVSS
VL: QSALTQPASVSGSPGQSITISCTGTSSDVGGYNSVSWYQQHPGKAPKLLIYAVSNRPSGVSNRFSGSKSGNTASLTISGLQAEDEADYYCASYDERFTRVFGGGTKLTVLG
notes: also called Antibody Camille
[1]
  Cell viability assay (IC50), Cynomolgus M-CSF: 3 pM
[2]
  Cell viability assay (IC50), Human M-CSF: 2 pM
RNase A (cow)
  binding result: no binding (tested: 100 nM and 10 nM antibody)
Myoglobin (horse)
  binding result: no binding (tested: 100 nM and 10 nM antibody)
Ovalbumin (chicken)
  binding result: no binding (tested: 100 nM and 10 nM antibody)
Serum albumin (human)
  binding result: no binding (tested: 100 nM and 10 nM antibody)
Pepsinogen (pork)
  binding result: no binding (tested: 100 nM and 10 nM antibody)
Antitrypsin (human)
  binding result: no binding (tested: 100 nM and 10 nM antibody)
Trypsinogen (cow)
  binding result: no binding (tested: 100 nM and 10 nM antibody)
